In publication PMC12102336:

Key:
ALX4 R218Q [1] = target: T1, ALX4 R218Q (Mus musculus (region identical to human), UniProt Q9H161 209-274, R218Q); test: ITC
ALX4 R216G = ALX4 R216G (Mus musculus (region identical to human), UniProt Q9H161 209-274, R216G); test: EMSA
ALX4 R215A;R216A = ALX4 R215A;R216A (Mus musculus (region identical to human), UniProt Q9H161 209-274, R215A;R216A); test: EMSA
ALX4 R216A = ALX4 R216A (Mus musculus (region identical to human), UniProt Q9H161 209-274, R216A); test: EMSA
ALX4 R216A, sequence (Q9H161 209-274 R216A): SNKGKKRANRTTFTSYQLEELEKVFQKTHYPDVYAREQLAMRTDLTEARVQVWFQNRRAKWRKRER

ALX4 R215A = ALX4 R215A (Mus musculus (region identical to human), UniProt Q9H161 209-274, R215A); test: EMSA
ALX4 R215A, sequence (Q9H161 209-274 R215A): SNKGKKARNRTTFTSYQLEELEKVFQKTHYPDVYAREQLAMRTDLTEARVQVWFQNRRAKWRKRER

ALX4 R218Q [2] = target: T1, ALX4 R218Q; test: EMSA
ALX4 169-303;ALX4 R272P = ALX4 169-303;ALX4 R272P (Mus musculus (region identical to …, UniProt Q9H161;Q9H161 169-303;209-274, |R272P)); test: EMSA
ALX4 169-303;ALX4 R272P (Mus musculus, sequence (Q9H161 169-303, stated change not applied, chain 1 of 2): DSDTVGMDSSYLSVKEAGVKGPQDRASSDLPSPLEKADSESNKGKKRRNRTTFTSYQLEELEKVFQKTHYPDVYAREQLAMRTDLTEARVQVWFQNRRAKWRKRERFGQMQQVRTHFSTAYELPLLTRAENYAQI
ALX4 169-303;ALX4 R272P (Mus musculus, sequence (Q9H161 209-274 R272P, chain 2 of 2): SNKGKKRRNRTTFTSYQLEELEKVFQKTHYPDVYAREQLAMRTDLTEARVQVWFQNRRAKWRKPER

ALX4 169-303;ALX4 K211E = ALX4 169-303;ALX4 K211E (Mus musculus (region identical to …, UniProt Q9H161;Q9H161 169-303;209-274, |K211E)); test: EMSA
ALX4 169-303;ALX4 K211E (Mus musculus, sequence (Q9H161 169-303, stated change not applied, chain 1 of 2): as the sequence (Q9H161 169-303, stated change not applied, chain 1 of 2) above
ALX4 169-303;ALX4 K211E (Mus musculus, sequence (Q9H161 209-274 K211E, chain 2 of 2): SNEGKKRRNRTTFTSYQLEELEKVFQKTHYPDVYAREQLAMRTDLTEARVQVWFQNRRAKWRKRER

ALX4 R272P = ALX4 R272P (Mus musculus (region identical to human), UniProt Q9H161 209-274, R272P); test: EMSA
ALX4 R272P, sequence (Q9H161 209-274 R272P): as the sequence (Q9H161 209-274 R272P, chain 2 of 2) above

ALX4 K211E = ALX4 K211E (Mus musculus (region identical to human), UniProt Q9H161 209-274, K211E); test: EMSA
ALX4 K211E, sequence (Q9H161 209-274 K211E): as the sequence (Q9H161 209-274 K211E, chain 2 of 2) above

ALX4 Q225E = ALX4 Q225E (Mus musculus (region identical to human), UniProt Q9H161 209-274, Q225E); test: EMSA
ALX4 Q225E, sequence (Q9H161 209-274 Q225E): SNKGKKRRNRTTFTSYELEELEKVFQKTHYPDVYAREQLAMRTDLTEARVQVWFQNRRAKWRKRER

[3] = target: ALX4 169-303;ALX4 HD (209-274) (Mus musculus (region identical to …, UniProt Q9H161;Q9H161 169-303;209-274, |)); test: EMSA
ALX4 169-303;ALX4 HD (209-274) (Mus musculus, sequence (Q9H161 169-303, chain 1 of 2): as the sequence (Q9H161 169-303, stated change not applied, chain 1 of 2) above
ALX4 169-303;ALX4 HD (209-274) (Mus musculus, sequence (Q9H161 209-274, chain 2 of 2): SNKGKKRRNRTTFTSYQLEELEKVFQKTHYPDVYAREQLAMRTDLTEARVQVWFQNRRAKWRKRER

T1 sequence (Q9H161 209-274 R218Q): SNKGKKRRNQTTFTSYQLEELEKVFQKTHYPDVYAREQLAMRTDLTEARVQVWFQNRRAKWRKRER
ALX4 R215A;R216A, sequence (Q9H161 209-274 R215A/R216A): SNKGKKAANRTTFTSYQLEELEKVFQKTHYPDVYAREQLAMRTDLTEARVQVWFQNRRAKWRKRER
ALX4 R216G, sequence (Q9H161 209-274 R216G): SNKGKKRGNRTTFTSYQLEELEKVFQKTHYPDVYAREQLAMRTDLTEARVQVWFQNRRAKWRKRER

| Binder | binding result (ALX4 R218Q [1]) | binding signal (ALX4 R216G) | binding signal (ALX4 R215A;R216A) | binding signal (ALX4 R216A) | binding signal (ALX4 R215A) | binding result (ALX4 R218Q [2]) | binding result (ALX4 169-303;ALX4 R272P) | binding result (ALX4 169-303;ALX4 K211E) | binding result (ALX4 R272P) | binding result (ALX4 K211E) | binding signal (ALX4 Q225E) | binding result [3] |
| --- | --- | --- | --- | --- | --- | --- | --- | --- | --- | --- | --- | --- |
| 14mer ITC duplex (dsDNA) DNA 1: CGCTAATTAGCTCG DNA 2: CGAGCTAATTAGCG | no binding |  |  |  |  |  |  |  |  |  |  |  |
| P3 EMSA probe (dsDNA) DNA 1: TGTGTCTTAATTAGATTAACGCACTTGATAGTGCGGGCGTGGCT DNA 2: AGCCACGCCCGCACTATCAAGTGCGTTAATCTAATTAAGACACA |  | ~10 fold reduction of Tau vs WT | ~20 fold reduction of Tau vs WT | ~10 fold reduction of Tau vs WT | ~5 fold reduction of Tau vs WT | no binding | binds | binds | binds | binds | ~2 fold reduction of Tau vs WT | binds |
